Data: patent publication US12344648B2

Assays:
[1] = molecular target: IL-15 receptors on CD8+ T cells and NK cells of cynomolgus monkey whole blood (cynomolgus monkey)
[2] = molecular target: IL-15 receptors on CD8+ T cells and NK cells of cynomolgus monkey whole blood (cynomolgus monkey); remark: listed apart in the source

Substance | EC50 of STAT5 signaling (pSTAT5), CD8+ T cells, cynomolgus monkey whole blood [1] | EC50 of STAT5 signaling (pSTAT5), NK cells, cynomolgus monkey whole blood [1] | fold change of EC50 for pSTAT5 induction against native IL-15, CD8+ T cells, cynomolgus monkey whole blood [2] | fold change of EC50 for pSTAT5 induction against native IL-15, NK cells, cynomolgus monkey whole blood [2]
IL-15_E54[AzK_PEG30] (ligand) | 9.2 ng/ml | 1.8 ng/ml | – | –
IL-15_L26[AzK_PEG30] (ligand) | 1040 ng/ml | 219 ng/ml | 164 fold | 115 fold
IL-15_N78[AzK_PEG30] (ligand) | 15.7 ng/ml | 3.9 ng/ml | – | –
native IL-15 (from UniProt P40933) (ligand) | 6.3 ng/ml | 1.9 ng/ml | – | –
